Results on 37 sequences are retold here after the supplement of paper PMC7877785.

± gives the uncertainty stated by the source.

The nature of this series: self-splicing fitness, log relative to wild type (ln ratio); higher = more splicing; Tetrahymena group I intron in knt gene, E. coli kanamycin selection, DiMSum; sequences stand for … in CUCUCU…GGAGGGAAAAGUUAUCAGGCAUGCACCUGGUAGCUAGUCUUUAAACCAAUAGAUUGCAUCGGUUUAAAAGGCAAGACCGUCAAAUUGCGGGAAAGGGGUCAACAGCCGUUCAGUACCAAGUCUCAGGGGAAACUUUGAGAUGGCCUUGCAAAGGGUAUGGUAAUAAGCUGACGGACAUGGUCCUAACCACGCAGCCAAGUCCUAAGUCAACAGAUCUUCUGUUGAUAUGGAUGCAGUUCACAGACUAAAUGUCGGUCGGGGAAGAUGUAUUCUUCUCAUAAGAUAUAGUCGGACCUCUCCUUAAUGGGAGCUAGCGGAUGAAGUGAUGCAACACUGGAGCCGCUGGGAACUAAUUUGUAUGCGAAAGUAUAUUGAUUAGUUUUGGAGUACUCGUGGUCG
An outline of the steps: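 The eight P1ex-region nucleotides of an intron in the knt kanamycin-resistance gene on pET-22b(+) were all randomised and the library put into E. coli BL21(DE3). Six replicate transformations were grown overnight at 37°C or 30°C on LB agar with or without 25 μg/mL kanamycin, together with 100 μg/mL carbenicillin, 50 μM IPTG and 0.2% rhamnose. Colonies were pooled and amplicon-sequenced on an Illumina HiSeq 2500. Fitness from DiMSum is the error-weighted combination of wild-type-normalised replicate fold changes, kanamycin over none.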

On to GGCUAGCAAUAUUACGUGAU, for which the “self-splicing fitness (ln)” value is, setting by setting: (30 °C) -0.939 ± 0.099; (37 °C) -0.509 ± 0.11.

For UCCCAGCAAUAUUACGGGUU, the “self-splicing fitness (ln)” value by setting is: (30 °C) -2.48 ± 0.07; (37 °C) -1.54 ± 0.079.

As to ACUUAGCAAUAUUACGACCA, the “self-splicing fitness (ln)” value (30 °C) is -0.584 ± 0.12 and the “self-splicing fitness (ln)” value (37 °C) is -1.01 ± 0.12.

In the case of UACCAGCAAUAUUACGUAUA, the “self-splicing fitness (ln)” value was -0.615 ± 0.058 (30 °C) and -0.199 ± 0.072 (37 °C).

As to GAUGAGCAAUAUUACGUUGG, the “self-splicing fitness (ln)” value was -3.65 ± 0.3 (30 °C) and -2.2 ± 0.32 (37 °C).

GACCAGCAAUAUUACGACCC: the “self-splicing fitness (ln)” value (30 °C) is -0.132 ± 0.14 and the “self-splicing fitness (ln)” value (37 °C) amounted to 0.75 ± 0.18.

Turning to CUCGAGCAAUAUUACGAUAA, the “self-splicing fitness (ln)” value (30 °C) is -2.16 ± 0.36 and the “self-splicing fitness (ln)” value (37 °C) was -2.02 ± 0.37.

For the sequence UAAAAGCAAUAUUACGGCCU, the “self-splicing fitness (ln)” value is -0.961 ± 0.1 (30 °C) and -0.4 ± 0.12 (37 °C).

Regarding CCUCAGCAAUAUUACGGAUU, the “self-splicing fitness (ln)” value is -4.3 ± 0.39 (30 °C) and -2.56 ± 0.22 (37 °C).

GCUCAGCAAUAUUACGUAAC: the “self-splicing fitness (ln)” value is, setting by setting: (30 °C) -1 ± 0.087; (37 °C) -0.439 ± 0.11.

In the case of UUGUAGCAAUAUUACGUGAU, the “self-splicing fitness (ln)” value (30 °C) was -3.14 ± 0.17 and the “self-splicing fitness (ln)” value (37 °C) was -1.01 ± 0.15.

Regarding AACGAGCAAUAUUACGACCA, the “self-splicing fitness (ln)” value by setting is: (30 °C) -2.23 ± 0.18; (37 °C) -1.53 ± 0.19.

As for UAAUAGCAAUAUUACGCUGG, the “self-splicing fitness (ln)” value (30 °C) was -1.95 ± 0.14 and the “self-splicing fitness (ln)” value (37 °C) is -1.85 ± 0.16.

Turning to CGCUAGCAAUAUUACGAUGU, the “self-splicing fitness (ln)” value was -2.56 ± 0.11 (30 °C) and -1 ± 0.11 (37 °C).

AAUCAGCAAUAUUACGAGAA: the “self-splicing fitness (ln)” value runs as follows: (30 °C) -1.61 ± 0.26; (37 °C) -1.61 ± 0.2.

Turning to UACAAGCAAUAUUACGAUCG, the “self-splicing fitness (ln)” value was found to be 0.00344 ± 0.082 (30 °C) and 0.983 ± 0.11 (37 °C).

GAUCAGCAAUAUUACGUAAU: the “self-splicing fitness (ln)” value runs as follows: (30 °C) -0.0684 ± 0.098; (37 °C) -0.341 ± 0.13.

Take CUGUAGCAAUAUUACGAUUC: the “self-splicing fitness (ln)” value runs as follows: (30 °C) -3.71 ± 0.23; (37 °C) -3.19 ± 0.4.

With UUCCAGCAAUAUUACGCAUU, the “self-splicing fitness (ln)” value runs as follows: (30 °C) -3.09 ± 0.17; (37 °C) -0.682 ± 0.11.

For AGCUAGCAAUAUUACGAACU, the “self-splicing fitness (ln)” value was -0.899 ± 0.12 (30 °C) and 0.179 ± 0.16 (37 °C).

For the sequence UGCUAGCAAUAUUACGAACG, the “self-splicing fitness (ln)” value by setting is: (30 °C) -0.171 ± 0.097; (37 °C) 0.803 ± 0.12.

For the sequence GCGCAGCAAUAUUACGUUUG, the “self-splicing fitness (ln)” value is, setting by setting: (30 °C) -1.86 ± 0.14; (37 °C) -1.76 ± 0.14.

With UGACAGCAAUAUUACGCCCU, the “self-splicing fitness (ln)” value reads like this: (30 °C) 0.0425 ± 0.16; (37 °C) 0.0969 ± 0.14.

For the sequence GUCGAGCAAUAUUACGACGA, the “self-splicing fitness (ln)” value is, setting by setting: (30 °C) -3.05 ± 0.35; (37 °C) -1.28 ± 0.21.

Take CCUUAGCAAUAUUACGAUUU: the “self-splicing fitness (ln)” value is, setting by setting: (30 °C) -4.25 ± 0.42; (37 °C) -2.44 ± 0.35.

Turning to CACGAGCAAUAUUACGUGUG, the “self-splicing fitness (ln)” value runs as follows: (30 °C) -3.48 ± 0.13; (37 °C) -3.21 ± 0.17.

Consider AGACAGCAAUAUUACGCUCG, for which the “self-splicing fitness (ln)” value was -0.153 ± 0.076 (30 °C) and 0.136 ± 0.089 (37 °C).

GAGCAGCAAUAUUACGCGGC: the “self-splicing fitness (ln)” value (30 °C) is -3.97 ± 0.25 and the “self-splicing fitness (ln)” value (37 °C) is -1.87 ± 0.14.

On to ACCCAGCAAUAUUACGGGAG, for which the “self-splicing fitness (ln)” value (30 °C) was -1.23 ± 0.059 and the “self-splicing fitness (ln)” value (37 °C) was -1.05 ± 0.082.

With GCGCAGCAAUAUUACGCCAU, the “self-splicing fitness (ln)” value is -3.8 ± 0.38 (30 °C) and -1.84 ± 0.3 (37 °C).

As for UCCAAGCAAUAUUACGCCUU, the “self-splicing fitness (ln)” value (30 °C) is -4.12 ± 0.22 and the “self-splicing fitness (ln)” value (37 °C) is -2.98 ± 0.21.

In the case of ACUCAGCAAUAUUACGAUUA, the “self-splicing fitness (ln)” value is -0.552 ± 0.065 (30 °C) and -0.431 ± 0.067 (37 °C).

In the case of CGUUAGCAAUAUUACGAAAG, the “self-splicing fitness (ln)” value is -1.11 ± 0.13 (30 °C) and -0.689 ± 0.18 (37 °C).

For the sequence AUGUAGCAAUAUUACGCACC, the “self-splicing fitness (ln)” value is -1.63 ± 0.15 (30 °C) and -0.228 ± 0.18 (37 °C).

Turning to CUAUAGCAAUAUUACGAUUC, the “self-splicing fitness (ln)” value (30 °C) is -3.51 ± 0.26 and the “self-splicing fitness (ln)” value (37 °C) was -1.71 ± 0.21.

Regarding ACAAAGCAAUAUUACGCCUU, the “self-splicing fitness (ln)” value is -2.01 ± 0.075 (30 °C) and -0.625 ± 0.087 (37 °C).

UGGCAGCAAUAUUACGGGAG: the “self-splicing fitness (ln)” value is -3.13 ± 0.21 (30 °C) and -1.15 ± 0.14 (37 °C).
